{"source": "paper PMC11718236", "about": "“The Psu protein of phage satellite P4 inhibits transcription termination factor ρ by forced hyper-oligomerization” (Nature Communications, 2023)", "binders": {"B1": {"name": "phage satellite P4 polarity suppression protein Psu (wild type), purified (natural protein)", "chain": "MESTALQQAFDTCQNNKAAWLQRKNELAAAEQEYLRLLSGEGRNVSRLDELRNIIEVRKWQVNQAAGRYIRSHEAVQHISIRDRLNDFMQQHGTALAAALAPELMGYSELTAIARNCAIQRATDALREALLSWLAKGEKINYSAQDSDILTTIGFRPDVASVDDSREKFTPAQNMIFSRKSAQLASRQSV", "notes": "polarity suppression protein Psu of phage satellite P4; No tag is told for the purified protein; also called Psu^wt; wt Psu; source: E. coli BL21 RIL, purified (ammonium sulfate precipitation, heparin, MonoQ, MonoS, Superdex 75 SEC)"}, "B2": {"name": "Psu R43A variant, purified (natural protein, phage satellite P4)", "chain": "B1 chain with R43A"}}, "key": {"[1]": {"biological_target": "the molecule itself", "test": "cryo-EM structure; ρ^P167L-ATPγS-Psu complexes; 10 mM TRIS-HCl pH 8.0, 120 mM KOAc, 5 mM Mg(OAc)2, 5 µM ZnCl2; 1 mM ATPγS; single-particle analysis"}, "[2]": {"biological_target": "transcription termination factor ρ (wild type), non-tagged, purified (E. coli, UniProt P0AG30 1-419)", "test": "cell-based or functional assay"}, "[3]": {"biological_target": "transcription termination factor ρ P167L variant, non-tagged, purified (E. coli, UniProt P0AG30 1-419, P167L)", "test": "cell-based or functional assay"}, "[4]": {"biological_target": "T1, Rho (transcription termination factor ρ, wt);Psu (polarity suppression protein) (Escherichia coli;phage satellite P4, UniProt P0AG30;P05460 1-419;1-190, |)", "test": "fluorescence anisotropy; PBS; Psu up to 30 uM dimer has no effect; ADP-BeF3; 20 mM HEPES pH 7.5, 150 mM KCl, 5% glycerol, 5 mM MgCl2, 0.5 mM TCEP; SBS assays with 10 uM unlabeled dC15 and 2 mM ADP-BeF3; probe 5 uM dC15-FAM or 2 uM rU12-FAM; temperature not stated", "conditions": "protein: recombinant;recombinant; tags: none;none; chain copies: 6;2; label: FAM (fluorescein); single strand"}, "[5]": {"biological_target": "T2, Rho P167L;Psu (polarity suppression protein) (Escherichia coli;phage satellite P4, UniProt P0AG30;P05460 1-419;1-190, P167L|)", "test": "fluorescence anisotropy; PBS; Psu up to 30 uM dimer has no effect; ADP-BeF3; 20 mM HEPES pH 7.5, 150 mM KCl, 5% glycerol, 5 mM MgCl2, 0.5 mM TCEP; SBS assays with 10 uM unlabeled dC15 and 2 mM ADP-BeF3; probe 5 uM dC15-FAM or 2 uM rU12-FAM; temperature not stated", "conditions": "protein: recombinant;recombinant; tags: none;none; chain copies: 6;2; label: FAM (fluorescein); single strand"}, "[6]": {"biological_target": "T1, Rho (transcription termination factor …)", "test": "fluorescence anisotropy; SBS; IC50 of Psu as inhibitor (very weak inhibition); dC15-blocked PBS; 2 mM ADP-BeF3; 20 mM HEPES pH 7.5, 150 mM KCl, 5% glycerol, 5 mM MgCl2, 0.5 mM TCEP; SBS assays with 10 uM unlabeled dC15 and 2 mM ADP-BeF3; probe 5 uM dC15-FAM or 2 uM rU12-FAM; temperature not stated", "conditions": "protein: recombinant;recombinant; tags: none;none; chain copies: 6;2; label: FAM (fluorescein); single strand"}, "[7]": {"biological_target": "T2, Rho P167L;Psu (polarity suppression …)", "test": "fluorescence anisotropy; Psu added to pre-formed ρP167L-dC15-rU12-FAM complex; RNA not displaced; ADP-BeF3; 20 mM HEPES pH 7.5, 150 mM KCl, 5% glycerol, 5 mM MgCl2, 0.5 mM TCEP; SBS assays with 10 uM unlabeled dC15 and 2 mM ADP-BeF3; probe 5 uM dC15-FAM or 2 uM rU12-FAM; temperature not stated", "conditions": "protein: recombinant;recombinant; tags: none;none; chain copies: 6;2; label: FAM (fluorescein); single strand"}}, "note": "Substitutions are numbered along the chain they refer to. In names and notes the source's numbering stands."}
{"binder": "B1", "values": [{"measurement": "stoichiometry N", "setting": "[1]", "result": 2}, {"measurement": "IC50 of Psu for inhibition of rU12-FAM binding at the SBS of ρ^wt (fluorescence anisotropy, with ADP-BeF3 and dC15)", "setting": "[2]", "result": 299, "unit": "µM"}, {"measurement": "IC50 of inhibition of the RNA-stimulated ATPase activity of ρ^wt by Psu (TLC, 1 h, 37 °C)", "setting": "[2]", "result": 0.9, "unit": "µM"}, {"measurement": "decrease of the ρ^wt ATPase rate at Psu dimer:ρ hexamer 10:1 and 50:1 (1.3-fold and 1.6-fold)", "setting": "[2]", "result": 1.6, "unit": "fold"}, {"measurement": "IC50 of Psu for inhibition of rU12-FAM binding at the SBS of ρ^P167L (fluorescence anisotropy, with ADP-BeF3 and dC15)", "setting": "[3]", "result": 2.8, "unit": "µM"}, {"measurement": "IC50 of inhibition of the RNA-stimulated ATPase activity of ρ^P167L by Psu (TLC, 1 h, 37 °C)", "setting": "[3]", "result": 0.8, "unit": "µM"}, {"measurement": "decrease of the ρ^P167L ATPase rate at Psu dimer:ρ hexamer 10:1 and 50:1 (1.5-fold and 4-fold)", "setting": "[3]", "result": 4, "unit": "fold"}]}
{"binder": "B2", "values": [{"measurement": "IC50 of inhibition of the RNA-stimulated ATPase activity of ρ^P167L by Psu^R43A (TLC, 1 h, 37 °C)", "setting": "[3]", "result": 12.9, "unit": "µM"}]}
{"binder": "CCCCCCCCCCCCCCC (ssDNA)", "note": "[dC15-FAM]", "values": [{"measurement": "binding result", "setting": "[4]", "result": "binds"}, {"measurement": "binding result", "setting": "[5]", "result": "binds"}]}
{"binder": "UUUUUUUUUUUU (ssRNA)", "note": "[rU12-FAM]", "values": [{"measurement": "IC50", "setting": "[6]", "result": 299, "unit": "µM"}, {"measurement": "binding result", "setting": "[7]", "result": "binds"}]}
